Experimental data as given in patent publication US20190023810A1 (MIT, published 2019).
Values belong to the binder of their own block, whether it stands above or below them.

Key:
CD20 = target: T1, CD20 (UniProt P11836 1-297, limits assumed); assay: CD20 binding titration; legend and text call it an ELISA, but the y axis 'Mean APC-A Intensity' fits the flow cytometry cell-based binding assay on Raji cells
T1 sequence (looked up): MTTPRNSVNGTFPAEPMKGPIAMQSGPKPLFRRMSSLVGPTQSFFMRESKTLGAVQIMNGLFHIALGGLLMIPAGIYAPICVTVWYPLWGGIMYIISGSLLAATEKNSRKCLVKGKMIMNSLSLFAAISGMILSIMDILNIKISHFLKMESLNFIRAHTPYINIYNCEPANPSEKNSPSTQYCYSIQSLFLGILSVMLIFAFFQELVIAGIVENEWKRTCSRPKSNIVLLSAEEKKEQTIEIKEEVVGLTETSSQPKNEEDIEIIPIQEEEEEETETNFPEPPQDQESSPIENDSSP

HER3 [1] = target: T2, HER3 (UniProt P21860 20-643, limits assumed); assay: single antigen ELISA, HER3 coated, anti-human IgG HRP detection
Method: (§1) Briefly 96-well plates were coated overnight at […] with appropriate antigen. The plates were washed and blocked with 1% blotto (Santa Cruz Biotechnologies). Serial dilution of antibodies were added to the plate and incubated for 2 hours at room temperature. Antigen bound IgG was detected using RbαHu IgG HRP Conjugated secondary antibody (Jackson ImmunoResearch) followed by TMB substrate (KPL) addition.

HER1 = target: T3, HER1 (UniProt P00533 25-645, limits assumed); assay: single antigen ELISA, antigen coated; printed as Kd′, from a 4 parametric fit
T3 construct: also called EGFR
Method: as §1

PD1 = PD1 (UniProt Q15116 25-167, limits assumed); assay: sandwich (dual antigen) ELISA for PD1 and VEGF bound at once; the filing does not say which antigen is coated and which is detected
PD1, sequence (Q15116 25-167 limits assumed): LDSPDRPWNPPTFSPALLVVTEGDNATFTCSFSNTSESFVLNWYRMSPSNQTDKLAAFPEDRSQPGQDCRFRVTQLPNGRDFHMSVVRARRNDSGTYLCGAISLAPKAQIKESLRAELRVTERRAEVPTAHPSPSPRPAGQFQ

VEGF = VEGF (UniProt P15692-4 27-191, limits assumed); assay: as above
VEGF, sequence (P15692 other isoform, or with tags, fused parts or gaps limits assumed): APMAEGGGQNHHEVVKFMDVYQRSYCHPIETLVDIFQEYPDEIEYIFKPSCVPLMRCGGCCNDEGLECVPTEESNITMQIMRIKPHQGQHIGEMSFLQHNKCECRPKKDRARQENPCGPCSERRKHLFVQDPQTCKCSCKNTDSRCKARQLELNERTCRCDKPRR

HER3 [2] = target: T2, HER3; assay: single antigen ELISA, antigen coated; printed as Kd′, from a 4 parametric fit
Method: as §1

B2: Pertuzumab WT (antibody, V domains shown)
VH: EVQLVESGGGLVQPGGSLRLSCAASGFTFTDYTMDWVRQAPGKGLEWVADVNPNSGGSIYNQRFKGRFTLSVDRSKNTLYLQMNSLRAEDTAVYYCARNLGPSFYFDYWGQGTLVTVSS
VL: DIQMTQSPSSLSASVGDRVTITCKASQDVSIGVAWYQQKPGKAPKLLIYSASYRYTGVPSRFSGSGSGTDFTLTISSLQPEDFATYYCQQYYIYPYTFGQGTKVEIKR
binding result (HER3 [1]): no binding (tested: 1 (axis 'Ab Conc.', no unit printed))

B3: DL11 WT (antibody, V domains shown)
VH: EVQLVESGGGLVQPGGSLRLSCAASGFTLSGDWIHWVRQAPGKGLEWLGEISAAGGYTDYADSVKGRFTISADTSKNTAYLQMNSLRAEDTAVYYCARESRVSFEAAMDYWGQGTLVTVSS
VL: DIQMTQSPSSLSASVGDRVTITCRASQDLATDVAWYQQKPGKAPKLLIYSASFLYSGVPSRFSGSGSGTDFTLTISSLQPEDFATYYCQQSEPEPYTFGQGTKVEIKR
notes: also called MEHD7945A
Kd (HER1): 41.5 pM

B4: nivolumab/bevacizumab bispecific antibody (bispecific antibody, human IgG1, kappa)
light 1: not shown
heavy 1: not shown
light 2: DIQMTQSPSSLSASVGDRVTITCSASQDISNYLNWYQQKPGKAPKVLIYFTSSLHSGVPSRFSGSGSGTDFTLTISSLQPEDFATYYCQQYSTVPWTFGQGTKVEIKRTVAAPSVFIFPPSDEKLKSGTASVVCLLKNFYPREAKVQWKVDNALQSGNSQESVTEQDSKDSTYSLSSALTLSKADYEKHKVYACEVTHQGLSSPVTKSFNRGEC
heavy 2: not shown
notes: Human IgG1/kappa bispecific with four different chains; also called BsAb
EC50 (read off the curve) (PD1): ~0.2 µg/mL
EC50 (read off the curve) (VEGF): ~0.2 µg/mL

Continued, values first:

EC50 (read off the curve) (CD20): ~2 µg/mL
B1: rituximab/obinutuzumab bispecific antibody (bispecific antibody, human IgG1, kappa)
light 1: QIVLSQSPAILSASPGEKVTMTCRASSSVSYIHWFQQKPGSSPKPWIYATSNLASGVPVRFSGSGSGTSYSLTISRVEAEDAATYYCQQWTSNPPTFGGGTKLEIKRTVAAPSVFIFPPSDEDLKSGTASVVCLLDNFYPREAKVQWKVDNALQSGNSQESVTEQDSKDSTYSLSSTLTLSKADYEKHKVYACEVTHQGLSSPVTKSFNRGEC
heavy 1: not shown
light 2: DIVMTQTPLSLPVTPGEPASISCRSSKSLLHSNGITYLYWYLQKPGQSPQLLIYQMSNLVSGVPDRFSGSGSGTDFTLKISRVEAEDVGVYYCAQNLELPYTFGGGTKVEIKRTVAAPSVFIFPPSDEKLKSGTASVVCLLKNFYPREAKVQWKVDNALQSGNSQESVTEQDSKDSTYSLSSALTLSKADYEKHKVYACEVTHQGLSSPVTKSFNRGEC
heavy 2: not shown
notes: Human IgG1/kappa bispecific with four different chains; Both arms are anti-CD20; also called Rxm/Ga101; Rxm/GA101

Kd (HER1): 89.8 pM
Kd (HER3 [2]): 89.8 pM
B5: pertuzumab/DL11 bispecific antibody (bispecific antibody, human IgG1, kappa)
light 1: DIQMTQSPSSLSASVGDRVTITCKASQDVSIGVAWYQQKPGKAPKLLIYSASYRYTGVPSRFSGSGSGTDFTLTISSLQPEDFATYYCQQYYIYPYTFGQGTKVEIKRTVAAPSVFIFPPSDEDLKSGTASVVCLLDNFYPREAKVQWKVDNALQSGNSQESVTEQDSKDSTYSLSSTLTLSKADYEKHKVYACEVTHQGLSSPVTKSFNRGEC
heavy 1: not shown
light 2: DIQMTQSPSSLSASVGDRVTITCRASQDLATDVAWYQQKPGKAPKLLIYSASFLYSGVPSRFSGSGSGTDFTLTISSLQPEDFATYYCQQSEPEPYTFGQGTKVEIKRTVAAPSVFIFPPSDEKLKSGTASVVCLLKNFYPREAKVQWKVDNALQSGNSQESVTEQDSKDSTYSLSSALTLSKADYEKHKVYACEVTHQGLSSPVTKSFNRGEC
heavy 2: not shown
notes: Human IgG1/kappa bispecific with four different chains; Expressed in Freestyle 293 cells and purified by protein A, gel filtration and the cation exchange main peak; also called P/D; P/D bi-specific
